Source: paper PMC3441419, “The Redox-Sensing Regulator Rex Modulates Central Carbon Metabolism, Stress Tolerance Response and Biofilm Formation by Streptococcus mutans”

T1: rRex (Streptococcus mutans UA159?) (UniProt Q8DU91)
T1 sequence: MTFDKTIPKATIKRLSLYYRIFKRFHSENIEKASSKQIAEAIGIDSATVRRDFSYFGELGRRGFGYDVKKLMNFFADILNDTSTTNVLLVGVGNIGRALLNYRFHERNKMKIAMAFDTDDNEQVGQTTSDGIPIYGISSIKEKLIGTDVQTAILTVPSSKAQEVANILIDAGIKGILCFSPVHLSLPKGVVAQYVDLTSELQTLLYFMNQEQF

T2: rRex (UniProt Q8DU91 1-213)
T2 sequence: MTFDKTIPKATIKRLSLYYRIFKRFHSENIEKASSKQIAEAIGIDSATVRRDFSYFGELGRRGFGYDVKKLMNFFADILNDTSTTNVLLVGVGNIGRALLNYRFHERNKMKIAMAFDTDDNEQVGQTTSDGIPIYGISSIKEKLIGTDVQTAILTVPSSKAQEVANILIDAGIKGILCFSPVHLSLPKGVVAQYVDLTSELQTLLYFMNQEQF

B1: adhE Rex-box oligo 148Fw/148Rv (dsDNA)
DNA 1: ATTTTTTTGTGAAAAGGGTTACAATGACAAG
DNA 2: CTTGTCATTGTAACCCTTTTCACAAAAAAAT
B2: mutated adhE Rex-box oligo m148Fw/m148Rv (dsDNA)
DNA 1: ATTTTTAACAGTAAAGGGTTACAATGACAAG
DNA 2: CTTGTCATTGTAACCCTTTACTGTTAAAAAT
B3: adhE1 cold oligo (dsDNA)
DNA 1: TTTTGTGAAAAGGGTTACAATG
DNA 2: CATTGTAACCCTTTTCACAAAA

Key:
[1] = biological target: T1, rRex (Streptococcus mutans UA159?); test: EMSA; conditions: 20 mM Tris pH 8.0, 1 mM EDTA, 75 mM KCl, 2 mM DTT, 10% glycerol, 10 min at room temperature (+15 min after NAD+/NADH); 5% native PAGE
[2] = biological target: T2, rRex; test: EMSA; 20 mM Tris pH 8.0, 1 mM EDTA, 75 mM KCl, 2 mM DTT, 10% glycerol, 10 min at room temperature (+15 min after NAD+/NADH); 5% native PAGE; conditions: protein: recombinant; tags: N-terminal His (pQE30); blunt
[3] = biological target: T2, rRex; test: competition; unlabeled competitor against biotinylated adhE1, dose-dependent; 20 mM Tris pH 8.0, 1 mM EDTA, 75 mM KCl, 2 mM DTT, 10% glycerol, 10 min at room temperature (+15 min after NAD+/NADH); 5% native PAGE; conditions: protein: recombinant; tags: N-terminal His (pQE30); blunt

Molecule	binding [1]	binding result [2]	other results
ATGACAGTTCCTCGCATTTTTAATTTATGTTATAATTATAAGTGAAAAACATCACATTTGAAAAGCCTTACAAATATCTTAAAAAATGACTTTTTATGACTTTTAGATGGGAGGTTTGCTTAGT (double strand) [frdC promoter]	binds	–	–
ACAAGCCCATACTGAGTTTGGACATTAAAGCTCAGCAGGGCTATGATTATGATGTCATTATCATCGGCGGCGGTGTTTCAGGTGTGACTCTAGCC (double strand) [gshR promoter]	binds	–	–
B1	–	binds	–
B2	–	no binding	–
B3	–	–	binding result [3]: binds
